Three molecules from patent US20220340675A1 (CELGENE, published 2022) can be followed below.

Test [1] has as its target T1, human CD47 expressed on the cell surface (human, UniProt Q08722 19-323). Briefly: cell-based or functional assay.
Test [2] deals with T2, CD20 on cells (Raji cells, human B cells) (human, UniProt P11836 1-297).
T2 construct: whole, on cells; The cells that carry it (Raji, B cells) also carry CD47
T2 sequence (looked up): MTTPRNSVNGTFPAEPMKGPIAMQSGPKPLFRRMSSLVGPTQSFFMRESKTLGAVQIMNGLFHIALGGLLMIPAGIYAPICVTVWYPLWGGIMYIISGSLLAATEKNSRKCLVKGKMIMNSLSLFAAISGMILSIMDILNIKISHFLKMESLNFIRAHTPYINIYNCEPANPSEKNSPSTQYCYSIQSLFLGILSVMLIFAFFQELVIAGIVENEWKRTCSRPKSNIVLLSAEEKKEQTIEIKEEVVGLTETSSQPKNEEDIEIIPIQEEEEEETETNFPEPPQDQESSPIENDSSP
The experiment in a line: binding to Raji cells (CD20+/CD47+), FIG. 17.

Test [3] has as its target T1, human CD47 expressed on the cell surface. The experiment in a line: blocking of human SIRPα binding to OCI-Ly3 cells (FIG. 21).

B1: TPP-1360 (bispecific antibody, human IgG1, kappa)
light 1: NIQMTQSPSSLSASVGDRVTITCRASQDIHRYLSWFQQKPGKVPKHLIYRESRFVDGVPSRFSGSGSGTEFTLTISSLQPEDFATYYCLQYDEFPYTFGGGTKVEIKRTVAAPSVFIFPPSDEELKSGTASVVCWLNNFYPREAKVQWKVDNALQSGNSEESVTEQDSKDSTYSLSSTLELSKADYEKHKVYACEVTHQGLSSPVTKSFNRGEC
heavy 1: QMQLVQSGAEVKKPGSSVKVSCKASGFNIKDYYLHWVRQAPGKGLEWMGWIDPDQGDTYYAQKFQGRVTITRDRSTSTAYMELRSLRAEDTAVYYCNAAYGESSYPMDYWGQGTLVTVSSASTKGPSVFPLAPSSKSTSGGTAALGCLVKDYFPEPVTVSWNSGALTSGVHTFPAVLKSSGLYSLSSVVTVPSSSLGTQTYICNVNHKPSNTKVDKKVEPKSCDKTHTCPPCPAPELLGGPSVFLFPPKPKDTLMISRTPEVTCVVVDVSHEDPEVKFNWYVDGVEVHNAKTKPREEQYNSTYRVVSVLTVLHQDWLNGKEYKCKVSNKALPAPIEKTISKAKGQPREPQVYVLPPSREEMTKNQVSLLCLVKGFYPSDIAVEWESNGQPENNYLTWPPVLDSDGSFFLYSKLTVDKSRWQQGNVFSCSVMHEALHNHYTQKSLSLSPGK
light 2: QIVLSQSPAILSASPGEKVTMTCRASSSVSYIHWFQQKPGSSPKPWIYATSNLASGVPVRFSGSGSGTSYSLTISRVEAEDAATYYCQQWTSNPPTFGGGTKLEIKRTVAAPSVAIFPPSDERLKSGTASVVCVLNNFYPREAKVQWKVDNALQSGNSQESVTEQDSKDSTYSLSSRLTLSKADYEKHKVYACEVTHQGLSSPVTKSFNRGEC
heavy 2: QVQLQQPGAELVKPGASVKMSCKASGYTFTSYNMHWVKQTPGRGLEWIGAIYPGNGDTSYNQKFKGKATLTADKSSSTAYMQLSSLTSEDSAVYYCARSTYYGGDWYFNVWGAGTTVTVSAASTKGPSVFPLAPSSKSTSGGTAWLGCEVTDYFPEPVTVSWNSGALTSGVHTFPAVLESSGLYSLSSVVTVPSSSLGTQTYICNVNHKPSNTKVDKKVEPKSCDKTHTCPPCPAPELLGGPSVFLFPPKPKDTLMISRTPEVTCVVVDVSHEDPEVKFNWYVDGVEVHNAKTKPREEQYNSTYRVVSVLTVLHQDWLNGKEYKCKVSNKALPAPIEKTISKAKGQPREPQVYVYPPSREEMTKNQVSLTCLVKGFYPSDIAVEWESNGQPENNYKTTPPVLDSDGSFALVSKLTVDKSRWQQGNVFSCSVMHEALHNHYTQKSLSLSPGK
As for B1, in test [1], the “EC50, activation of macrophage phagocytosis of OCI-Ly3 cells” value was 1.4 nM and the “EC50, activation of macrophage phagocytosis of Raji cells” value is 1.8 nM.

B2: rituximab (antibody, human IgG1, kappa, V domains shown)
VH: QVQLQQPGAELVKPGASVKMSCKASGYTFTSYNMHWVKQTPGRGLEWIGAIYPGNGDTSYNQKFKGKATLTADKSSSTAYMQLSSLTSEDSAVYYCARSTYYGGDWYFNVWGAGTTVTVSA
VL: QIVLSQSPAILSASPGEKVTMTCRASSSVSYIHWFQQKPGSSPKPWIYATSNLASGVPVRFSGSGSGTSYSLTISRVEAEDAATYYCQQWTSNPPTFGGGTKLEIKR
notes: Anti-CD20 antibody, bivalent to CD20; also called rituxan
B2: the EC50 (commonly the concentration needed to bring the measured effect to its halfway point) in test [2] was about 1.1 nM.

B3: TPP-23 (408_437 Fab with IgG1) (antibody, V domains shown)
VH: QMQLVQSGAEVKKPGSSVKVSCKASGFNIKDYYLHWVRQAPGKGLEWMGWIDPDQGDTEYAQKFQGRVTITRDRSTSTAYMELRSLRAEDTAVYYCNAAYGSSSYPMDYWGQGTLVTVSS
VL: NIQMTQSPSSLSASVGDRVTITCRASQDIHRYLSWFQQKPGKVPKHLIYRANRLVSGVPSRFSGSGSGTEFTLTISSLQPEDFATYYCLQYDEFPYTFGGGTKVEIK
notes: also called parental CD47 mAb
For B3, the EC50 in test [3] is 0.11 nM.
